Results taken from the Human Domainome abundance scans (Beltran et al. 2025).
± gives the uncertainty stated by the source.

B1: Transcriptional regulator ERG, residues 117 to 197; numbered along this chain, P11308 (parent)
chain: NMTTNERRVIVPADPTLWSTDHVRQWLEWAVKEYGLPDVNILLFQNIDGKELCKMTKDDFQRLTPSYNADILLSHLHYLRE

Variants of: B1
Test: abundance fitness (aPCA) (normalised: wild type 0, dead -1); higher = more abundant; growth selection in yeast, the domain comes from the species named
Details: Homo sapiens

Abundance fitness: each site, then its substitutions
T4: F 0.079 ± 0.062; E 0.035 ± 0.045; M 0.146 ± 0.052; H -0.151 ± 0.075; K -0.043 ± 0.058; Q -0.126 ± 0.054; N -0.028 ± 0.069; D 0.04 ± 0.056
V9: Q 0.243 ± 0.055; M 0.132 ± 0.049; E 0.207 ± 0.075; N 0.099 ± 0.044; W 0.038 ± 0.07; C 0.046 ± 0.063; D 0.269 ± 0.052; S 0.137 ± 0.036; I -0.034 ± 0.044; L 0.096 ± 0.035; T 0.054 ± 0.043; H 0.034 ± 0.048; K 0.16 ± 0.06; P 0.292 ± 0.051; A 0.12 ± 0.045; R 0.113 ± 0.043; Y -0.062 ± 0.044; F 0.075 ± 0.045
N5: P -0.092 ± 0.058; E 0.064 ± 0.047; C -0.01 ± 0.066; A -0.06 ± 0.043; H -0.071 ± 0.078; D 0.079 ± 0.068; K 0.001 ± 0.056; S -0.119 ± 0.046; Y -0.105 ± 0.089; G -0.01 ± 0.034; M 0.085 ± 0.05; R -0.044 ± 0.037; F 0.075 ± 0.079; W -0.003 ± 0.049; T -0.071 ± 0.052; V -0.004 ± 0.044; I 0.036 ± 0.092
R8: F -0.076 ± 0.068; Q -0.011 ± 0.063; L -0.29 ± 0.054; V -0.478 ± 0.083; P -0.137 ± 0.066; E 0.09 ± 0.068; Y -0.496 ± 0.11; M -0.263 ± 0.083; I -0.323 ± 0.077; W -0.881 ± 0.19; G -0.207 ± 0.067; A -0.084 ± 0.056; H -0.098 ± 0.073; N 0.028 ± 0.064; K 0.104 ± 0.064; S -0.117 ± 0.052; T -0.022 ± 0.053; D 0.116 ± 0.067; C -0.112 ± 0.08
P12: G -0.136 ± 0.033; H -0.452 ± 0.12; D -0.042 ± 0.064; F -0.486 ± 0.099; C -0.644 ± 0.12; L -0.505 ± 0.058; K -0.215 ± 0.058; T -0.343 ± 0.077; R -0.248 ± 0.038; I -1.37 ± 0.5; E -0.019 ± 0.045; V -0.631 ± 0.067; A -0.176 ± 0.047; W -0.15 ± 0.044; S -0.209 ± 0.049; M -0.65 ± 0.1; N -0.027 ± 0.068; Y -0.45 ± 0.12
A13: R 0.043 ± 0.035; L -0.046 ± 0.045; P 0.116 ± 0.062; I 0.056 ± 0.068; M -0.033 ± 0.074; N 0.06 ± 0.088; H 0.045 ± 0.12; F -0.074 ± 0.072; V -0.01 ± 0.044; G 0.061 ± 0.037; C 0.009 ± 0.067; D 0.235 ± 0.063; Q 0.11 ± 0.06; K -0.05 ± 0.062; T 0.108 ± 0.065
V11: F 0.078 ± 0.076; D 0.013 ± 0.068; W 0.2 ± 0.04; Q -0.017 ± 0.054; A 0.102 ± 0.04; C 0.106 ± 0.064; G 0.05 ± 0.031; N 0.063 ± 0.073; E 0.056 ± 0.048; R 0.209 ± 0.033; H 0.321 ± 0.089; S 0.104 ± 0.044; I 0.102 ± 0.051; M 0.087 ± 0.053; L 0.067 ± 0.037; Y 0.113 ± 0.072; K 0.029 ± 0.048
M2: N -0.028 ± 0.075; S -0.105 ± 0.051; Y -0.139 ± 0.11; V -0.417 ± 0.054; R -0.049 ± 0.037; W -0.17 ± 0.053; H -0.046 ± 0.095; Q 0.037 ± 0.07; K -0.144 ± 0.059; T -0.033 ± 0.051; E -0.213 ± 0.058; P 0.004 ± 0.07; G -0.337 ± 0.044; I -0.143 ± 0.084; L -0.042 ± 0.053; C -0.166 ± 0.086; F -0.048 ± 0.084; A -0.296 ± 0.057; D -0.195 ± 0.11
T3: R -0.05 ± 0.036; P -0.162 ± 0.071; C -0.088 ± 0.066; G -0.022 ± 0.035; L -0.094 ± 0.046; A -0.043 ± 0.039; H -0.127 ± 0.086; K -0.109 ± 0.065; F -0.007 ± 0.073; V -0.08 ± 0.044; I -0.014 ± 0.08; S 0.055 ± 0.046; Y -0.141 ± 0.078; E -0.045 ± 0.055; M 0.029 ± 0.067; N -0.025 ± 0.078; D -0.05 ± 0.066; Q -0.043 ± 0.059
R7: P 0.049 ± 0.056; V -0.045 ± 0.038; G -0.003 ± 0.032; K 0.018 ± 0.049; Q 0.016 ± 0.056; S -0.047 ± 0.045; I -0.208 ± 0.074; Y -0.127 ± 0.076; A 0 ± 0.037; D 0.037 ± 0.057; N -0.09 ± 0.074; C -0.12 ± 0.068; W -0.053 ± 0.045; L 0.087 ± 0.039; T 0.021 ± 0.048; E 0.06 ± 0.045; H -0.115 ± 0.078; M 0.044 ± 0.053
